The assay addresses Wild-type placental protein 13/galectin-13 (Gal-13) (human) (UniProt Q9UHV8).

B1: Wild-type placental protein 13/galectin-13 (Gal-13) (natural protein)
chain: MSSLPVPYKLPVSLSVGSCVIIKGTPIHSFINDPQLQVDFYTDMDEDSDIAFRFRVHFGNHVVMNRREFGIWMLEETTDYVPFEDGKQFELCIYVHYNEYEIKVNGIRIYGFVHRIPPSFVKMVQVSRDISLTSVCVCN
B1 had a hemagglutination of chicken erythrocytes, minimum agglutination concentration (MAC) of 25 µg/mL.

For the origin of these results see PMC6294630.
